# Data reported in a protein production outcome set (Wang et al. 2014).
# Test: label from the status in PepcDB records
sequence,measurement,value
MSLERFAPIKVERCKDIQKELKKAAAENKLQTEDLWFEILKTSIFIKNSAKDDFSEAFGGELQQLEEEEYYEKKELTLYQTHDIKIKSNAYKRFFEVKVDENLSAIEIILDECFIVLDTEEHYQEMFAYIKECLAFQGVVFRHFSQMYENLKTELRKYQKEAQNKRFILYTSSTFIPNIEEQSHFLLEEEYLPTHTIFLSDQEESFVKENYYIAKENQKVACVNCPKQGRDGRNLKGLYIELPKVAHSPTPIGHDKNAFEEREENNALVYYSKALQGVKMEKGRLVSKQNFIFKNGIKSIETPNLLGGLESGLALEIQARDELSDAIDSNLILEASVINIKGNVGKNVILVAKEITIEGQIHPESYVYANKARITNHKGVCYAKELECKYLERAKVYANSVKVEASAGSVVYAKEIALEKLKSDNKLYFSKQCWIDEVDGNGNRFIFYAFGGRENQEELKAAKQKLNALGLKSKKIIAQHQSLNHLVKNHQAIMEKLKNATEEIKRSLMQQESVKDAYSEFMFALKRLKILKAQMLELQKINNECYAKLISIENSFQHASITTKNPFKQENIVIYHRNYPKVSNSTAMLSHNESVNVIYEDHKIKKVPKSAIKG,protein production,failed
